What was measured:
Experiment in all cases: cell-based or functional assay
[1] = molecular target: p65 AD-Cry2 535 (L348F) (human; Arabidopsis thaliana) (UniProt Q04206)
[2] = molecular target: Cry2 PHR (L348F)-p65 AD (Arabidopsis thaliana; human) (UniProt Q96524)
[3] = molecular target: Cry2 PHR-p65 AD (Arabidopsis thaliana; human) (UniProt Q96524)
[4] = molecular target: Cry2 PHR (L348F)-p65 AD-NLSx2
[5] = molecular target: Cry2 PHR-p65 AD-NLSx2 (Arabidopsis thaliana; human)
[6] = molecular target: p65 AD-Cry2 535 (human; Arabidopsis thaliana) (UniProt Q04206)
[7] = molecular target: NLSx2-p65 AD-Cry2 PHR (human; Arabidopsis thaliana)
[8] = molecular target: p65 AD-Cry2 PHR (human; Arabidopsis thaliana) (UniProt Q04206)
[9] = molecular target: p65 AD-Cry2 PHR (L348F) (human; Arabidopsis thaliana) (UniProt Q04206)
[10] = molecular target: NLSx2-p65 AD-Cry2 PHR (L348F) (human; Arabidopsis thaliana)

Substance | Average of the Light/Dark ratio [1] | Light/Dark [1] | Ub-ELuc luciferase, Dark [1] | Ub-ELuc luciferase, Light [1] | Average of the Light/Dark ratio [2] | Light/Dark [2] | Ub-ELuc luciferase, Dark [2] | Ub-ELuc luciferase, Light [2] | Average of the Light/Dark ratio [3] | Light/Dark [3] | Ub-ELuc luciferase, Dark [3] | Ub-ELuc luciferase, Light [3] | Average of the Light/Dark ratio [4] | Light/Dark [4] | Ub-ELuc luciferase, Dark [4] | Ub-ELuc luciferase, Light [4] | Average of the Light/Dark ratio [5] | Light/Dark [5] | Ub-ELuc luciferase, Dark [5] | Ub-ELuc luciferase, Light [5] | further results
TetR (I194T, 1-206)-SPKKK-CIB1 full | 2 | 2.3 | 4.8 relative | 10.5 relative | 1.6 | 1.6 | 2.7 relative | 4.3 relative | 1.5 | 1.7 | 2.4 relative | 4.1 relative | 1 | 1.4 | 5.1 relative | 6.8 relative | 0.9 | 0.8 | 20.1 relative | 16.6 relative | Average of the Light/Dark ratio [6]: 2.1; Light/Dark [6]: 2.1; Ub-ELuc luciferase, Dark [6]: 4.3 relative; Ub-ELuc luciferase, Light [6]: 8.7 relative; Average of the Light/Dark ratio [7]: 1.9; Light/Dark [7]: 2.4; Ub-ELuc luciferase, Dark [7]: 21.9 relative; Ub-ELuc luciferase, Light [7]: 50.9 relative; Average of the Light/Dark ratio [8]: 1.6; Light/Dark [8]: 1.6; Ub-ELuc luciferase, Dark [8]: 13.8 relative; Ub-ELuc luciferase, Light [8]: 20.7 relative; Average of the Light/Dark ratio [9]: 1.7; Light/Dark [9]: 2.2; Ub-ELuc luciferase, Dark [9]: 8.3 relative; Ub-ELuc luciferase, Light [9]: 17.2 relative; Average of the Light/Dark ratio [10]: 1.7; Light/Dark [10]: 1.8; Ub-ELuc luciferase, Dark [10]: 19.3 relative; Ub-ELuc luciferase, Light [10]: 34.3 relative
TetR (I194T, 1-206)-SPKKK-CIB1 full no NLS | 2 | 2.7 | 9.3 relative | 23.9 relative | 1.2 | 1.5 | 4.8 relative | 7.2 relative | 1.4 | 2 | 3 relative | 5.4 relative | 0.9 | 1.2 | 11.3 relative | 12.4 relative | 0.9 | 0.9 | 30.1 relative | 25.2 relative | Average of the Light/Dark ratio [6]: 2; Light/Dark [6]: 3.3; Ub-ELuc luciferase, Dark [6]: 10.4 relative; Ub-ELuc luciferase, Light [6]: 31.8 relative; Average of the Light/Dark ratio [7]: 1.6; Light/Dark [7]: 2.2; Ub-ELuc luciferase, Dark [7]: 56 relative; Ub-ELuc luciferase, Light [7]: 109 relative; Average of the Light/Dark ratio [8]: 1.5; Light/Dark [8]: 2; Ub-ELuc luciferase, Dark [8]: 36.2 relative; Ub-ELuc luciferase, Light [8]: 65.2 relative; Average of the Light/Dark ratio [9]: 1.4; Light/Dark [9]: 1.6; Ub-ELuc luciferase, Dark [9]: 33 relative; Ub-ELuc luciferase, Light [9]: 47.9 relative; Average of the Light/Dark ratio [10]: 1.4; Light/Dark [10]: 1.9; Ub-ELuc luciferase, Dark [10]: 50.2 relative; Ub-ELuc luciferase, Light [10]: 86.8 relative

— US20210340548A1
